Where two headings read alike, the source gives them in different places.

For orientation: EC50 means the concentration giving half of the maximal effect. Low readings indicate higher potency in that assay, high ones lower potency in that assay. A word on the IC50: it is the concentration at which inhibition is half-maximal.

Experiment [1] concerns the target T1, FLAG-tagged human APRIL (human, UniProt O75888 105-250, limits assumed).
T1 construct: also called FLAG-tagged APRIL; FLAG-APRIL; not shown: FLAG tag
T1 sequence (looked up): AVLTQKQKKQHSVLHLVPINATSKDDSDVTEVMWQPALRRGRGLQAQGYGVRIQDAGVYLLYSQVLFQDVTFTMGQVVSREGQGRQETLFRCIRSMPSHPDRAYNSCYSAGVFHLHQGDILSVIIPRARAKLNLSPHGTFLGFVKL
The experiment in a line: FLAG-APRIL ELISA after 10 min at 65 °C, antibody at 1 µg/ml. The method, then: (§1) The plasmids encoding the VH and VL constructs were mixed in a 1:3 ratio (4 μg in total) and transiently expressed by transfection into HEK293T human embryonic kidney cells (HEK293T/17, ATCC-CRL-11268), using Lipofectamine 2000 transfection reagent (Invitrogen) following the manufacturer's instructions. Cell supernatants were harvested after 5 days and tested for expression of antibody and binding to APRIL using an enzyme-linked immuno assay (ELISA). In these ELISAs, all incubation steps were followed by a wash step with PBST (PBS with 0.01% Tween 20). Maxisorb 96-wells plates (Nunc) were coated with 0.5 μg/ml anti-FLAG (Sigma) or anti-IgG4 (Jackson laboratories) and incubated overnight at 4° C. Subsequently the anti-FLAG coated 96-wells plates were incubated with FLAG-tagged human APRIL for 1 hour at room temperature. Next, supernatants and dilutions thereof were incubated for 1 hour, which was followed by an incubation of 1 hour with mouse anti-human IgG HRP-conjugate (Southern Biotechnology).
(§2) To determine the effect of humanization on the stability of the antibodies, humanized antibodies were exposed to a range of temperatures for 10 minutes. Purified antibodies were diluted to 3.16 μg/ml and dilutions thereof in PBS. Next, these solutions were exposed to 65° C. or 70° C. and residual binding after heat treatment of the antibodies was measured using the FLAG-tagged APRIL ELISA assay as described before (see Table 6).
(§3) In addition, the stability of the substituted humanized antibodies was improved as determined using thermostability studies as described in Example 3 (see Table 9).
On the technique in general: An ELISA detects its analyte on a solid surface through an enzyme-linked reagent.

Experiment [2] concerns the target T1, FLAG-tagged human APRIL. Description: FLAG-APRIL ELISA after 10 min at 70 °C, antibody at 1 µg/ml.
Experiment [3] has as its target T1, FLAG-tagged human APRIL. Description: FLAG-APRIL ELISA after 10 min at 65 °C, antibody at 3.16 µg/ml. The method, then: as §1, §2, §3
Experiment [4] deals with T1, FLAG-tagged human APRIL. Description: FLAG-APRIL ELISA after 10 min at 70 °C, antibody at 3.16 µg/ml.
The target in experiment [5] is T1, FLAG-tagged human APRIL. The experiment in a line: FLAG-APRIL ELISA after 10 min at 65 °C, antibody at 0.316 µg/ml. The method, then: as §1, §2, §3
Experiment [6] concerns the target T1, FLAG-tagged human APRIL. The experiment in a line: FLAG-APRIL ELISA after 10 min at 70 °C, antibody at 0.316 µg/ml.
Experiment [7] deals with T1, FLAG-tagged human APRIL. Description: ELISA: FLAG-tagged human APRIL captured on anti-FLAG plate, purified antibody titrated.
The target in experiment [8] is T1, FLAG-tagged human APRIL. The experiment is described as above. This is another data set of the same source.
In experiment [9] the target is T1, FLAG-tagged human APRIL. The experiment in a line: competition ELISA: antibody premixed with FLAG-tagged APRIL, added to coated Fc-BCMA, anti-FLAG HRP. The protocol: Again, plasmids encoding the VH and VL constructs were mixed in a 1:3 ratio (32 μg) and transiently expressed by transfection into (8*10⁶) HEK293T human embryonic kidney cells (HEK293T), using Lipofectamine 2000 transfection reagent (Invitrogen) according to the manufacturer's instructions. Supernatants were harvested (10 ml) and antibodies were purified using MabSelect Sure Protein A resin according to the manufacturer's instructions (GE Healthcare). Buffer was exchanged for PBS using Zeba desalting columns (Thermo Scientific). The concentration of purified antibodies was determined based on OD280 (Nanodrop ND-1000). The binding of the purified antibodies to APRIL was established using the above described APRIL ELISA. The blocking capability of the humanized antibodies with BCMA and TACI receptors, was tested in a competition ELISA. In these ELISAs, all incubation steps were followed by a wash step with PBST (PBS with 0.01% Tween 20). Maxisorb 96-wells plates (Nunc) were coated with 0.5 μg/ml Fc-BCMA (R&D Systems) or Fc-TACI (R&D Systems) and incubated overnight at 4° C. […] Reactions were stopped with 100 μl 0.5 M H2504 and absorbances were measured at 450 and 620 nm. Calculated EC₅₀ and IC₅₀ representing the concentration at which 50% of the total binding signal or blocking is observed are represented in Table 5. […]

For experiment [10], the target named is T1, FLAG-tagged human APRIL. The experiment is described as above. The method, then:
(§4) A subset of humanized antibodies described above was selected for further analyses. Again, plasmids encoding the VH and VL constructs were mixed in a 1:3 ratio (32 μg) and transiently expressed by transfection into (8*10⁶) HEK293T human embryonic kidney cells (HEK293T), using Lipofectamine 2000 transfection reagent (Invitrogen) according to the manufacturer's instructions. Supernatants were harvested (10 ml) and antibodies were purified using MabSelect Sure Protein A resin according to the manufacturer's instructions (GE Healthcare). Buffer was exchanged for PBS using Zeba desalting columns (Thermo Scientific). The concentration of purified antibodies was determined based on OD280 (Nanodrop ND-1000). The binding of the purified antibodies to APRIL was established using the above described APRIL ELISA. The blocking capability of the humanized antibodies with BCMA and TACI receptors, was tested in a competition ELISA. In these ELISAs, all incubation steps were followed by a wash step with PBST (PBS with 0.01% Tween 20). Maxisorb 96-wells plates (Nunc) were coated with 0.5 μg/ml Fc-BCMA (R&D Systems) or Fc-TACI (R&D Systems) and incubated overnight at 4° C. Next, humanized antibodies and dilutions thereof were incubated, premixed with FLAG-tagged APRIL, for 1 hour, which was followed by an incubation of 1 hour with anti-FLAG HRP-conjugate (Sigma). Immunoreactivity was visualized with 100 μl TMB Stabilized Chromagen (Invitrogen). Reactions were stopped with 100 μl 0.5 M H2504 and absorbances were measured at 450 and 620 nm. Calculated EC₅₀ and IC₅₀ representing the concentration at which 50% of the total binding signal or blocking is observed are represented in Table 5.
The antibodies were tested for binding, blockade, and stability as described before.
The source holds these as a separate data set.

Experiment [11] has as its target T1, FLAG-tagged human APRIL. The experiment in a line: FLAG-APRIL ELISA after 10 min at 65 °C, antibody at 1 µg/ml. The method, then: as §1, §2
The source holds these as a separate data set.

Experiment [12] addresses T1, FLAG-tagged human APRIL. The experiment in a line: FLAG-APRIL ELISA after 10 min at 70 °C, antibody at 1 µg/ml. The method, then:
as §1, §2
This is another data set of the same source.

For experiment [13], the target named is T1, FLAG-tagged human APRIL. Description: FLAG-APRIL ELISA after 10 min at 65 °C, antibody at 3.16 µg/ml. The method, then:
as §1, §2
The source holds these as a separate data set.

In experiment [14] the target is T1, FLAG-tagged human APRIL. Description: FLAG-APRIL ELISA after 10 min at 70 °C, antibody at 3.16 µg/ml. The protocol: as §1, §2
This is another data set of the same source.

Experiment [15] addresses T1, FLAG-tagged human APRIL. Description: FLAG-APRIL ELISA after 10 min at 65 °C, antibody at 0.316 µg/ml. The method, then:
as §1, §2
The source holds these as a separate data set.

Experiment [16] has as its target T1, FLAG-tagged human APRIL. Description: FLAG-APRIL ELISA after 10 min at 70 °C, antibody at 0.316 µg/ml. The protocol:
as §1, §2
The source holds these as a separate data set.

The target of experiment [17] is T1, FLAG-tagged human APRIL. Description: ELISA: FLAG-tagged human APRIL captured on anti-FLAG plate, purified antibody titrated. The protocol:
as §1
as §4, with “(Sigma).” for “(Sigma). Immunoreactivity was visualized with 100 μl TMB Stabilized Chromagen (Invitrogen). Reactions were stopped with 100 μl 0.5 M H2504 and absorbances were measured at 450 and 620 nm. Calculated EC₅₀ and IC₅₀ representing the concentration at which 50% of the total binding signal or blocking is observed are represented in Table 5.”
This is another data set of the same source.

B1: VH14_1.VL15 (antibody, human IgG4, V domains shown)
VH: QVQLVQSGAEVKKPGASVKVSCKASGYTFTSYVMHWVRQAPGQGLEWMGYINPYNDAPKYNEKFKGRVTMTSDTSASTAYMELSSLRSDDTAVYYCARGLGYALYYAMDYWGQGTTVTVSS
VL: DIVMTQSPSTLSASVGDRVTITCKASQNVGNNVAWYQQKPGKAPKLLISSASNRDSGVPSRFSGSGSGTEFTLTISSLQPDDFATYFCQQYNIYPFTFGQGTKLEIK
notes: VH14 with R72S; rest is human IgG4 (S241P, Kabat) and human kappa; also called 14_1.15; antibody 14_1.15
As to B1, the “% residual binding after heat treatment (room temperature = 100%)” value (“% residual binding after heat treatment” below) with FLAG-tagged human APRIL [1] is 46.1%; in the experiment with FLAG-tagged human APRIL [2] it was 38.3%; with FLAG-tagged human APRIL [3], 59.9%; with FLAG-tagged human APRIL [4], 38%; with FLAG-tagged human APRIL [5], 71%; in the experiment with FLAG-tagged human APRIL [6], 63%. In addition, the half-maximal effective concentration (EC50) with FLAG-tagged human APRIL [7] and with FLAG-tagged human APRIL [8] was 1.29 nM in each case. Further, the IC50 with FLAG-tagged human APRIL [9] and with FLAG-tagged human APRIL [10] was 2.63 nM each time.

B2: VH14.VL15 (antibody, human IgG4 S228P, kappa, V domains shown)
VH: QVQLVQSGAEVKKPGASVKVSCKASGYTFTSYVMHWVRQAPGQGLEWMGYINPYNDAPKYNEKFKGRVTMTRDTSASTAYMELSSLRSDDTAVYYCARGLGYALYYAMDYWGQGTTVTVSS
VL: DIVMTQSPSTLSASVGDRVTITCKASQNVGNNVAWYQQKPGKAPKLLISSASNRDSGVPSRFSGSGSGTEFTLTISSLQPDDFATYFCQQYNIYPFTFGQGTKLEIKR
notes: Humanized IgG4 (S241P, Kabat) with human kappa, from HEK293T
Turning to B2, the “% residual binding after heat treatment” value in the experiment with FLAG-tagged human APRIL [11] came to 45.2%; with FLAG-tagged human APRIL [12] it was 42.5%; with FLAG-tagged human APRIL [1] it was 47.5%; in the experiment with FLAG-tagged human APRIL [2], 55.1%; with FLAG-tagged human APRIL [13], 58.6%; in the experiment with FLAG-tagged human APRIL [14] it was 50%. Moreover, the “% residual binding after heat treatment” value with FLAG-tagged human APRIL [3] is 59%; in the experiment with FLAG-tagged human APRIL [4] it was 58.6%; with FLAG-tagged human APRIL [15], 63.7%; with FLAG-tagged human APRIL [16], 63.1%; with FLAG-tagged human APRIL [5], 67.5%; with FLAG-tagged human APRIL [6], 79.1%. Moreover, in the experiment with FLAG-tagged human APRIL [17], the EC50 came to 48.3 nM.
